Source: patent US20180155451A1 (published 2018)

Each binder was assayed against T1, FcγRIa (human, UniProt P12314 16-292) (assay: SPR (Biacore), antibody captured on antigen peptide chip, FcγRIa as analyte; relative binding amount).
T1 construct: extracellular domain; also called FcgRI; CD64; not shown: C-terminal His tag
Description: Analysis of interaction between objective antibody and the FcγR was carried out using Biacore T100 (GE Healthcare). HBS-EP+ (GE Healthcare) was used as the running buffer, and the measurement temperature was set to 25° C. Chips produced by immobilizing the antigen peptide by the amine coupling method to a Series S Sencor Chip CM5 (GE Healthcare), or alternatively, chips produced by allowing preliminarily biotinylated antigen peptides to interact with and immobilize onto a Series S Sensor Chip SA (certified) (GE Healthcare) were used. Antibodies of interest were captured onto an antigen peptide-immobilized chip, and allowed to interact to each FcγR diluted with running buffer. To regenerate and repeatedly use the chip, the antibodies captured on the chip were washed off by reacting 10 mM glycine-HCl, pH 1.5.

T1 sequence (P12314 16-292): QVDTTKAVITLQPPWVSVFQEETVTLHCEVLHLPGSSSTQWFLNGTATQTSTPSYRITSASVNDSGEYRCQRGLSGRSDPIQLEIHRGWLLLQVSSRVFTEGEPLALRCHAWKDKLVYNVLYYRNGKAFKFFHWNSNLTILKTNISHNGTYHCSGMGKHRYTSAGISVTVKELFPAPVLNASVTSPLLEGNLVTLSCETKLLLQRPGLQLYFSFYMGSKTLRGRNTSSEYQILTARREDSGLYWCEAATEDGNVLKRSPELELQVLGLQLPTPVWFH

Binder | Ho/Con_1a | He/Con_1a
GpH7-A5/GpH7-B3 variant Y300_01G/GpL16-k0 (antibody, human IgG1, kappa, heterodimerized IgG1; mutation in one H chain only; also called He Ab) heavy 1: not shown heavy 2: not shown light: DIVMTQSPLSLPVTPGEPASISCQASESLVHSNRNTYLHWYLQKPGQSPQLLIYKVSNRFSGVPDRFSGSGSGTDFTLKISRVEAEDVGVYYCSQNTHVPPTFGQGTKVEIERTVAAPSVFIFPPSDEQLKSGTASVVCLLNNFYPREAKVQWKVDNALQSGNSQESVTEQDSKDSTYSLSSTLTLSKADYEKHKVYACEVTHQGLSSPVTKSFNRGEC |  | 116 % of control (GpH7-A5/GpH7-B3/GpL16-k0 = 100)
GpH7-A5/GpH7-B3 variant Y296_10E/GpL16-k0 (antibody, human IgG1, kappa, heterodimerized IgG1; mutation in one H chain only; also called He Ab) heavy 1: not shown heavy 2: not shown light: DIVMTQSPLSLPVTPGEPASISCQASESLVHSNRNTYLHWYLQKPGQSPQLLIYKVSNRFSGVPDRFSGSGSGTDFTLKISRVEAEDVGVYYCSQNTHVPPTFGQGTKVEIERTVAAPSVFIFPPSDEQLKSGTASVVCLLNNFYPREAKVQWKVDNALQSGNSQESVTEQDSKDSTYSLSSTLTLSKADYEKHKVYACEVTHQGLSSPVTKSFNRGEC |  | 106 % of control (GpH7-A5/GpH7-B3/GpL16-k0 = 100)
GpH7-A5/GpH7-B3 variant T335_19Q/GpL16-k0 (antibody, human IgG1, kappa, heterodimerized IgG1; mutation in one H chain only; also called He Ab) heavy 1: not shown heavy 2: not shown light: DIVMTQSPLSLPVTPGEPASISCQASESLVHSNRNTYLHWYLQKPGQSPQLLIYKVSNRFSGVPDRFSGSGSGTDFTLKISRVEAEDVGVYYCSQNTHVPPTFGQGTKVEIERTVAAPSVFIFPPSDEQLKSGTASVVCLLNNFYPREAKVQWKVDNALQSGNSQESVTEQDSKDSTYSLSSTLTLSKADYEKHKVYACEVTHQGLSSPVTKSFNRGEC |  | 105 % of control (GpH7-A5/GpH7-B3/GpL16-k0 = 100)
GpH7-A5/GpH7-B3 variant T335_18N/GpL16-k0 (antibody, human IgG1, kappa, heterodimerized IgG1; mutation in one H chain only; also called He Ab) heavy 1: not shown heavy 2: not shown light: DIVMTQSPLSLPVTPGEPASISCQASESLVHSNRNTYLHWYLQKPGQSPQLLIYKVSNRFSGVPDRFSGSGSGTDFTLKISRVEAEDVGVYYCSQNTHVPPTFGQGTKVEIERTVAAPSVFIFPPSDEQLKSGTASVVCLLNNFYPREAKVQWKVDNALQSGNSQESVTEQDSKDSTYSLSSTLTLSKADYEKHKVYACEVTHQGLSSPVTKSFNRGEC |  | 106 % of control (GpH7-A5/GpH7-B3/GpL16-k0 = 100)
GpH7-A5/GpH7-B3 variant Y296_06M/GpL16-k0 (antibody, human IgG1, kappa, heterodimerized IgG1; mutation in one H chain only; also called He Ab) heavy 1: not shown heavy 2: not shown light: DIVMTQSPLSLPVTPGEPASISCQASESLVHSNRNTYLHWYLQKPGQSPQLLIYKVSNRFSGVPDRFSGSGSGTDFTLKISRVEAEDVGVYYCSQNTHVPPTFGQGTKVEIERTVAAPSVFIFPPSDEQLKSGTASVVCLLNNFYPREAKVQWKVDNALQSGNSQESVTEQDSKDSTYSLSSTLTLSKADYEKHKVYACEVTHQGLSSPVTKSFNRGEC |  | 104 % of control (GpH7-A5/GpH7-B3/GpL16-k0 = 100)
GpH7-A5/GpH7-B3 variant Y296_11K/GpL16-k0 (antibody, human IgG1, kappa, heterodimerized IgG1; mutation in one H chain only; also called He Ab) heavy 1: not shown heavy 2: not shown light: DIVMTQSPLSLPVTPGEPASISCQASESLVHSNRNTYLHWYLQKPGQSPQLLIYKVSNRFSGVPDRFSGSGSGTDFTLKISRVEAEDVGVYYCSQNTHVPPTFGQGTKVEIERTVAAPSVFIFPPSDEQLKSGTASVVCLLNNFYPREAKVQWKVDNALQSGNSQESVTEQDSKDSTYSLSSTLTLSKADYEKHKVYACEVTHQGLSSPVTKSFNRGEC |  | 105 % of control (GpH7-A5/GpH7-B3/GpL16-k0 = 100)
GpH7-A5/GpH7-B3 variant T335_16H/GpL16-k0 (antibody, human IgG1, kappa, heterodimerized IgG1; mutation in one H chain only; also called He Ab) heavy 1: not shown heavy 2: not shown light: DIVMTQSPLSLPVTPGEPASISCQASESLVHSNRNTYLHWYLQKPGQSPQLLIYKVSNRFSGVPDRFSGSGSGTDFTLKISRVEAEDVGVYYCSQNTHVPPTFGQGTKVEIERTVAAPSVFIFPPSDEQLKSGTASVVCLLNNFYPREAKVQWKVDNALQSGNSQESVTEQDSKDSTYSLSSTLTLSKADYEKHKVYACEVTHQGLSSPVTKSFNRGEC |  | 106 % of control (GpH7-A5/GpH7-B3/GpL16-k0 = 100)
GpH7-A5/GpH7-B3 variant T335_20W/GpL16-k0 (antibody, human IgG1, kappa, heterodimerized IgG1; mutation in one H chain only; also called He Ab) heavy 1: not shown heavy 2: not shown light: DIVMTQSPLSLPVTPGEPASISCQASESLVHSNRNTYLHWYLQKPGQSPQLLIYKVSNRFSGVPDRFSGSGSGTDFTLKISRVEAEDVGVYYCSQNTHVPPTFGQGTKVEIERTVAAPSVFIFPPSDEQLKSGTASVVCLLNNFYPREAKVQWKVDNALQSGNSQESVTEQDSKDSTYSLSSTLTLSKADYEKHKVYACEVTHQGLSSPVTKSFNRGEC |  | 106 % of control (GpH7-A5/GpH7-B3/GpL16-k0 = 100)

Continued, values first:

Ho/Con_1a | He/Con_1a | Binder
110 % of control (GpH7-B3/GpL16-k0 = 100) |  | GpH7-B3 variant Y300_19Q/GpL16-k0 (antibody, human IgG1, kappa, homodimerized IgG1; mutation in both H chains; also called Ho Ab) heavy: not shown light: DIVMTQSPLSLPVTPGEPASISCQASESLVHSNRNTYLHWYLQKPGQSPQLLIYKVSNRFSGVPDRFSGSGSGTDFTLKISRVEAEDVGVYYCSQNTHVPPTFGQGTKVEIERTVAAPSVFIFPPSDEQLKSGTASVVCLLNNFYPREAKVQWKVDNALQSGNSQESVTEQDSKDSTYSLSSTLTLSKADYEKHKVYACEVTHQGLSSPVTKSFNRGEC
 | 106 % of control (GpH7-A5/GpH7-B3/GpL16-k0 = 100) | GpH7-A5/GpH7-B3 variant Y296_12R/GpL16-k0 (antibody, human IgG1, kappa, heterodimerized IgG1; mutation in one H chain only; also called He Ab) heavy 1: not shown heavy 2: not shown light: DIVMTQSPLSLPVTPGEPASISCQASESLVHSNRNTYLHWYLQKPGQSPQLLIYKVSNRFSGVPDRFSGSGSGTDFTLKISRVEAEDVGVYYCSQNTHVPPTFGQGTKVEIERTVAAPSVFIFPPSDEQLKSGTASVVCLLNNFYPREAKVQWKVDNALQSGNSQESVTEQDSKDSTYSLSSTLTLSKADYEKHKVYACEVTHQGLSSPVTKSFNRGEC
 | 112 % of control (GpH7-A5/GpH7-B3/GpL16-k0 = 100) | GpH7-A5/GpH7-B3 variant Y296_19Q/GpL16-k0 (antibody, human IgG1, kappa, heterodimerized IgG1; mutation in one H chain only; also called He Ab) heavy 1: not shown heavy 2: not shown light: DIVMTQSPLSLPVTPGEPASISCQASESLVHSNRNTYLHWYLQKPGQSPQLLIYKVSNRFSGVPDRFSGSGSGTDFTLKISRVEAEDVGVYYCSQNTHVPPTFGQGTKVEIERTVAAPSVFIFPPSDEQLKSGTASVVCLLNNFYPREAKVQWKVDNALQSGNSQESVTEQDSKDSTYSLSSTLTLSKADYEKHKVYACEVTHQGLSSPVTKSFNRGEC
 | 106 % of control (GpH7-A5/GpH7-B3/GpL16-k0 = 100) | GpH7-A5/GpH7-B3 variant Y296_18N/GpL16-k0 (antibody, human IgG1, kappa, heterodimerized IgG1; mutation in one H chain only; also called He Ab) heavy 1: not shown heavy 2: not shown light: DIVMTQSPLSLPVTPGEPASISCQASESLVHSNRNTYLHWYLQKPGQSPQLLIYKVSNRFSGVPDRFSGSGSGTDFTLKISRVEAEDVGVYYCSQNTHVPPTFGQGTKVEIERTVAAPSVFIFPPSDEQLKSGTASVVCLLNNFYPREAKVQWKVDNALQSGNSQESVTEQDSKDSTYSLSSTLTLSKADYEKHKVYACEVTHQGLSSPVTKSFNRGEC
 | 105 % of control (GpH7-A5/GpH7-B3/GpL16-k0 = 100) | GpH7-A5/GpH7-B3 variant Y296_13S/GpL16-k0 (antibody, human IgG1, kappa, heterodimerized IgG1; mutation in one H chain only; also called He Ab) heavy 1: not shown heavy 2: not shown light: DIVMTQSPLSLPVTPGEPASISCQASESLVHSNRNTYLHWYLQKPGQSPQLLIYKVSNRFSGVPDRFSGSGSGTDFTLKISRVEAEDVGVYYCSQNTHVPPTFGQGTKVEIERTVAAPSVFIFPPSDEQLKSGTASVVCLLNNFYPREAKVQWKVDNALQSGNSQESVTEQDSKDSTYSLSSTLTLSKADYEKHKVYACEVTHQGLSSPVTKSFNRGEC
110 % of control (GpH7-B3/GpL16-k0 = 100) |  | GpH7-B3 variant Y300_20W/GpL16-k0 (antibody, human IgG1, kappa, homodimerized IgG1; mutation in both H chains; also called Ho Ab) heavy: not shown light: DIVMTQSPLSLPVTPGEPASISCQASESLVHSNRNTYLHWYLQKPGQSPQLLIYKVSNRFSGVPDRFSGSGSGTDFTLKISRVEAEDVGVYYCSQNTHVPPTFGQGTKVEIERTVAAPSVFIFPPSDEQLKSGTASVVCLLNNFYPREAKVQWKVDNALQSGNSQESVTEQDSKDSTYSLSSTLTLSKADYEKHKVYACEVTHQGLSSPVTKSFNRGEC
 | 105 % of control (GpH7-A5/GpH7-B3/GpL16-k0 = 100) | GpH7-A5/GpH7-B3 variant Y296_14T/GpL16-k0 (antibody, human IgG1, kappa, heterodimerized IgG1; mutation in one H chain only; also called He Ab) heavy 1: not shown heavy 2: not shown light: DIVMTQSPLSLPVTPGEPASISCQASESLVHSNRNTYLHWYLQKPGQSPQLLIYKVSNRFSGVPDRFSGSGSGTDFTLKISRVEAEDVGVYYCSQNTHVPPTFGQGTKVEIERTVAAPSVFIFPPSDEQLKSGTASVVCLLNNFYPREAKVQWKVDNALQSGNSQESVTEQDSKDSTYSLSSTLTLSKADYEKHKVYACEVTHQGLSSPVTKSFNRGEC
 | 106 % of control (GpH7-A5/GpH7-B3/GpL16-k0 = 100) | GpH7-A5/GpH7-B3 variant Y296_16H/GpL16-k0 (antibody, human IgG1, kappa, heterodimerized IgG1; mutation in one H chain only; also called He Ab) heavy 1: not shown heavy 2: not shown light: DIVMTQSPLSLPVTPGEPASISCQASESLVHSNRNTYLHWYLQKPGQSPQLLIYKVSNRFSGVPDRFSGSGSGTDFTLKISRVEAEDVGVYYCSQNTHVPPTFGQGTKVEIERTVAAPSVFIFPPSDEQLKSGTASVVCLLNNFYPREAKVQWKVDNALQSGNSQESVTEQDSKDSTYSLSSTLTLSKADYEKHKVYACEVTHQGLSSPVTKSFNRGEC
